# From patent US7128910B2, “Moraxella catarrahalis outer membrane protein-106 polypeptide, gene sequences and uses thereof” (priority 1996, dated 2006)
# B1: proteinase K: Protease from Sigma Chemicals (protein, UniProt P06873 106-384, looked up)
# Proteinase K: AAQTNAPWGLARISSTSPGTSTYYYDESAGQGSCVYVIDTGIEASHPEFEGRAQMVKTYYYSSRDGNGHGTHCAGTVGSRTYGVAKKTQLFGVKVLDDNGSGQYSTIIAGMDFVASDKNNRNCPKGVVASLSLGGGYSSSVNSAAARLQSSGVMVAVAAGNNNADARNYSPASEPSVCTVGASDRYDRRSSFSNYGSVLDIFGPGTSILSTWIGGSTRSISGTSMATPHVAGLAAYLMTLGKTTAASACRYIADTANKGDLSNIPFGTVNLLAYNNYQA
# System: M. catarrhalis ATCC 49143
# Assay: Proteolytic digestion of intact cells followed by hemagglutination test
# Assay type: cell-based, Moraxella catarrhalis
# Conditions: intact cells digested 1 hour at room temperature
# Protocol: All proteases were obtained from Sigma Chemicals (St. Louis, Mo.). Immediately following the protease treatment, cells were washed once in PBS and resuspended in 1 ml of PBS and the hemagglutinating activity was tested. Additionally, protease-treated bacterial cells were extracted with octyl glucoside so the outer membrane proteins could be resolved to identify specific proteins that may have been digested by the proteases.
molecule,measurement,value
B1,Effect of protease treatment on hemagglutination activity,destroyed the hemagglutination activity
